Consider two substances from patent US20140142160.

The subject of the data set is Ezh2 (native PRC2) (Mus musculus). Kind of data set: pulldown. To be noted: RIP-seq WT RPKM.

In turn, Tsix RNA gave a binding signal (Ezh2-/- RPKM 3.27) of 10.3 RPKM.

In turn, Xist/RepA endogenous RNA displayed a binding signal (Ezh2-/- RPKM 0) of 4.18 RPKM.
